Experimental findings from patent US20210403595 (published 2021) are described below.

Substitutions are numbered along the chain they refer to.

The labels stand for the following.
T1: cynomolgus CD3 on T cells (cynomolgus monkey)
T1 chain: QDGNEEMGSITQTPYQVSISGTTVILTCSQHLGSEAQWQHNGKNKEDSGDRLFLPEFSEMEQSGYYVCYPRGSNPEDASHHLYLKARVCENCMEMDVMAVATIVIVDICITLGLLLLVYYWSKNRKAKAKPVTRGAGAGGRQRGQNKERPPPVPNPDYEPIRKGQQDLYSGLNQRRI

B1: BSPSMA/CD3-1400 CD3 arm (antibody, V domains shown)
VH: EVQLVESGGGLVQPGRSLRLSCAASGFTFDDYSMHWVRQAPGKGLEWVSGISWNSGSIGYADSVKGRFTISRDNAKNSLYLQMNSLRAEDTALYYCAKYGSGYGKFYHYGMDVWGQGTTVTVSS
VL: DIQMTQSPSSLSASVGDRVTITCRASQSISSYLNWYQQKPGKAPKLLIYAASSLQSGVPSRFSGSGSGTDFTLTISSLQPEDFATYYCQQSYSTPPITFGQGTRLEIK
B2: BSPSMA/CD3-005 CD3 arm (antibody, V domains shown)
VH: B1 VH with H108Y
VL: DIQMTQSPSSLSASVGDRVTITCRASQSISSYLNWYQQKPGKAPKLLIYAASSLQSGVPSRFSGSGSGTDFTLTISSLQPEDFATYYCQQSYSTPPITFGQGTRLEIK
B3: BSPSMA/CD3-1100 CD3 arm (antibody, V domains shown)
VH: B1 VH with I58K
VL: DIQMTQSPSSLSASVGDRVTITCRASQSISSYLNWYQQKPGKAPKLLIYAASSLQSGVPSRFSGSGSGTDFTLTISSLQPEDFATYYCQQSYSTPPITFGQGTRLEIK
B4: BSPSMA/CD3-1300 CD3 arm (antibody, V domains shown)
VH: B1 VH with H108Y, M111L
VL: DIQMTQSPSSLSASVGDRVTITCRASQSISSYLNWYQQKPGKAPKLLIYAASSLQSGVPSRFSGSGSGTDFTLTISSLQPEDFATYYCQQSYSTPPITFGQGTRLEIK
B5: H1H5796B (antibody, V domains shown)
VH: EVQLVESGAEVKKPGASVKVSCKTSGYTFTGYYMHWIRQAPGQGLEWMGWINPKSGGTNYAQKFQGRVTMTRDTSISTAYMELSRLRSDDMAVYYCARMGDGAVFDFWGQGTLVTVSS
VL: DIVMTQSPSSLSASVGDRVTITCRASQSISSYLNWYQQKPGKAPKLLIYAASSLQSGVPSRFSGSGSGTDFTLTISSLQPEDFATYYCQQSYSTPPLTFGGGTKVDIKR
B6: H1H5761P (antibody, V domains shown)
VH: QVQLVESGGGVVQPGRSLRLSCAASGFTFSSYGMHWVRQAPGKGLEWVAVISYDGSNKYYADSVKGRFTISRDYSKNTLYLQMNSLRAEDTAVFYCAKGAMVRGVPYNYYYGMDVWGQGTTVTVSS
VL: DIQMTQSPSSLSASVGDRVTITCRASQGIRNDLGWFQQKPGKAPKRLIYAASSLQSGVPSRFSGSGSGTEFTLTISSLQPEDFATYYCLQHNSYPYTFGQGTKLEIK
B7: H1H5764P (antibody, V domains shown)
VH: B6 VH with S30R, Y32F, S56N, N57Y, Y74N, F94H, Y109F
VL: B6 VL with G28V, F36Y, V58I
B8: H1H5777P (antibody, V domains shown)
VH: EVQLVESGGGLVQPGRSLRLSCAASGFTFDDYAMHWVRQAPGKGLEWVSGISWNSGSRDYADSVKGRFTISRDNARNSLFLQMNSLSTEDTALYYCAKDKSGYGSYYYGMDVWGQGTTVTVSS
VL: EIVLTQSPGTLSLSPGDRATLSCRASQSIRSIYLAWYQQKPGQAPRLLIHGASTRATGIPDRFSGSGSGTDFTLTISRLEPEDFAVYYCQQRVSSPYTFGQGTKLEIK
B9: H1H5769P (antibody, V domains shown)
VH: B8 VH with A33T, A40V, V48I, R58M, L86V, S87R, Y106F
VL: B8 VL with I29V, R30S, V93A, S94H
B10: H1H5751P (antibody)
chain 1: EVQLVESGGDLVQPGRSLRLSCAASGFTFDDYTMHWVRQAPGKGLEWVSIISWNGNTIDYADSVKGRFTISRDNAKNSLYLQMNSLRAEDTALYYCAKDKSGYGHFYYYVLDVWGQGTTVTVSS
chain 2: DIQMTQSPSSLSASVGDRVTITCRASQSINNYLNWYQQKPGKAPKLLIYAASSLQSGVPSRFSGSGSGTDFTLTISSLQPEDFATYYSQQSYSFPWTFGQGTKVEIK
B11: BSPSMA/CD3-004 CD3 arm (antibody, V domains shown)
VH: B1 VH with Y99D, H108Y
VL: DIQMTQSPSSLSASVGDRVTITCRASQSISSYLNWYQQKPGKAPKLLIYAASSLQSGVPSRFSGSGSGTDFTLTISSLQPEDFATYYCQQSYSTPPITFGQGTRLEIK
B12: BSPSMA/CD3-1800 CD3 arm (antibody, V domains shown)
VH: B1 VH with Y99D, H108Y, M111L
VL: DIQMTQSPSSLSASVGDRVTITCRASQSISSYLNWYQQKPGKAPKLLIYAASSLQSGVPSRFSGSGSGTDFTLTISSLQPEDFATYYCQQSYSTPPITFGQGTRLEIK
B13: H2M2710N (antibody, V domains shown)
VH: QVQLVESGGGVVQPGRSLRLSCAASGFTFRSFGMHWVRQAPGRGLEWVAMIYFDGKNKYYADSVRGRFTISRDNSKNTLYLEMSSLRAEDTAVYFCARGPGYNWLDPWGQGTLVTVSS
VL: EIVMTQSPATLSVSPGERATLSCRASQSVSRNLAWYQQKPGQAPRLLIYGASTRATGVPARFSGSGSGTEFTLTISSLQSEDFAVFHCQQYNNRPLTFGGGTEVEIK
B14: H1M3549N (antibody, V domains shown)
VH: EVQLVESGGGLVQPGRSLRLSCVASGFPFADYTMHWVRQAPGKGLEWVSDISWNSGSIGYADSVKGRFTISRDNAKNSLYLQMNSLRTEDTALYYCAKDMSGYAHYFYYGMDVWGQGTTVTVSS
VL: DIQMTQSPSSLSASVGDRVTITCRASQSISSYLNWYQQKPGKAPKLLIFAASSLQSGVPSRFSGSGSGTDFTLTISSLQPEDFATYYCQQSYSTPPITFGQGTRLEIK
B15: H2M3541N (antibody, V domains shown)
VH: B14 VH with Q13R, V23A, P28T, A30D, S57T, T88P, F107Y
VL: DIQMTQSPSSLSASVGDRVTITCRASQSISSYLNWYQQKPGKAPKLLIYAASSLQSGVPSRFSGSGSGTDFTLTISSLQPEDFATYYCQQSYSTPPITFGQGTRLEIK
B16: H2M2704N (antibody, V domains shown)
VH: B13 VH with A23G, F32Y, A40T, F53Y, K56N, I70V, E82Q, V93L
VL: B13 VL with V29I, Q38X, V58I, F86Y, H87Y
modifications: not fully specified; listing feature
B17: H2M3543N (antibody, V domains shown)
VH: B14 VH with V23A, P28T, A30D, I70V, T88G, F107G
VL: DIQMTQSPSSLSASVGDRVTITCRASQSIRNYLNWYQQKPGKVPKLLIYAASSLQSGVPSRFSGSGSGTDFTLTISSLQPEDFATYYCQQSYSNPPITFGQGTRLEIK
B18: H2M2778N (antibody, V domains shown)
VH: B1 VH with G56R, G59D, A97V, Y99D, G100N, K105R, F106Y, H108Y, T121S
VL: KIVMTQSPATLSVSPGERATLSCRASQSVSGNLAWYQQKPGQAPRLLIYGASTRATSIPARFSGSGSGTEFTLTISSLQSEDFAVYFCQHYYNWPLTFGGGTKVEIR

human CD3 epsilon/delta heterodimer, Fc-tagged (human), sequence (chain, as listed by the source mutant, chain 1 of 2): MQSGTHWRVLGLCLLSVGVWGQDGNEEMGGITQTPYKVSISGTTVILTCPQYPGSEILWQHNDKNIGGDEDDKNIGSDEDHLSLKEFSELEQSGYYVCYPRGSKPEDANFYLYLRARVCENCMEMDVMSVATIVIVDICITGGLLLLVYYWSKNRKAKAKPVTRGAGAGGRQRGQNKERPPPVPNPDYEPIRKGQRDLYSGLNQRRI
human CD3 epsilon/delta heterodimer, Fc-tagged (human), sequence (chain, as listed by the source mutant, chain 2 of 2): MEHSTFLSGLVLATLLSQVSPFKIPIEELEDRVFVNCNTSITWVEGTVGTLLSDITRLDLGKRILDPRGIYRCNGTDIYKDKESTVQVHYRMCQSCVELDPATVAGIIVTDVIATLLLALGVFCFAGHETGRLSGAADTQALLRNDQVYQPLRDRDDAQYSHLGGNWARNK

One experiment has as its target T1, cynomolgus CD3 on T cells. The experiment is described as follows: FACS. In general terms: In flow cytometry, cells or beads pass a laser one at a time.
In the case of B1, a half-maximal response (EC50) required 170 nM.

The molecule B2 gave a concentration giving a half-maximal response (EC50) of 6140 nM.

The molecule B3 returned an EC50 of 890 nM.

In the case of B4, the EC50 is 2170 nM. This EC50 lies about 2.4-fold higher than the previous one.

The next experiment deals with human CD3 on Jurkat cells (human). The experiment is described as follows: FACS.
human CD3 on Jurkat cells (human), sequence (chain, as listed by the source, chain 1 of 2): as the sequence (chain, as listed by the source mutant, chain 1 of 2) above
human CD3 on Jurkat cells (human), sequence (chain, as listed by the source, chain 2 of 2): as the sequence (chain, as listed by the source mutant, chain 2 of 2) above
The molecule B5 returned a half-maximal effective concentration (EC50) of 9.82 nM. That is a single-digit nanomolar value.

Molecule B6 had an EC50 of 2.1 nM.

In turn, B7 returned an EC50 of 0.88 nM.

Molecule B8 gave an EC50 of 0.571 nM.

In turn, B9 had an EC50 of 4.1 nM.

Molecule B10 yielded an EC50 of 2.12 nM.

Another experiment has the same target. Nature of the experiment: FACS. This is another data set of the same source.
In the case of B1, the concentration for a half-maximal effect (EC50) was found to be 31.9 nM.

Turning to B2, the EC50 was 210 nM.

B3: the EC50 came to 18.3 nM.

B11: the EC50 is around 1000 nM.

As to B4, the EC50 was found to be 102 nM.

B12 yielded an EC50 of 126 nM.

The target in the next experiment is T1, cynomolgus CD3 on T cells. Nature of the experiment: FACS. This is another data set of the same source.
With B11, the binding result is on record as “no binding”.

For B12, the binding result was “no binding”.

The next experiment concerns the target human CD3 on Jurkat cells (human). The experiment is described as follows: FACS. This is another data set of the same source.
In turn, B13 had an EC50 of 0.71 nM.

In the case of B14, the response was half-maximal at 2.3 nM (EC50).

The molecule B15 came in with a concentration giving a half-maximal response (EC50) of 3.7 nM. Compared with the last molecule, the EC50 is about 1.6-fold higher.

A further experiment has as its target human CD3 epsilon/delta heterodimer, Fc-tagged (human). Nature of the experiment: SPR, 37C. In general terms: Surface plasmon resonance follows binding to a sensor surface in real time, without labels.
In the case of B1, binding was put at a Kd of 53.3 nM.

Regarding B2, the affinity, expressed as Kd, was 334 nM.

As for B3, binding was put at a Kd of 11.1 nM.

Molecule B4 returned a Kd of 122 nM.

A further experiment shares this target. The experiment is described as follows: SPR, 37C. The source holds these as a separate data set.
Regarding B11, the binding result is “no binding”.

For the molecule B12, the binding result was “no binding”.

The next experiment has the same target. Nature of the experiment: SPR, 25C antigen-capture.
Consider B5, for which binding was characterised by a dissociation constant (Kd) of 2.32 nM. That is a single-digit nanomolar value.

In turn, B6 displayed a Kd of 53.4 nM.

B7 showed an equilibrium dissociation constant (Kd) of 21 nM.

The molecule B8 gave a Kd of 3.52 nM.

B9: the Kd is 4.41 nM.

Regarding B10, the Kd is 3.42 nM.

The next experiment has the same target. Nature of the experiment: SPR, 25C antibody-capture.
As to B5, the affinity, expressed as Kd, was 60.5 nM.

In turn, B6 came in with a Kd of 5160 nM.

B8 displayed a Kd of 224 nM.

In turn, B9 registered a Kd of 121 nM.

B10: the equilibrium dissociation constant (Kd) was 129 nM.

The target is the same in another experiment. The experiment is described as follows: SPR, 25C antibody-capture. The source holds these as a separate data set.
On to B16, for which binding was characterised by a dissociation constant (Kd) of 20 nM.

B17: the affinity, expressed as Kd, was 30 nM.

B18: the Kd amounted to 8.9 nM.

For orientation: EC50 means the concentration giving half of the maximal effect. What is called Kd is the free concentration of one partner at which half of the binding sites on the other are occupied at equilibrium, for simple one-to-one binding. The low end stands for tighter binding, the high end for weaker binding.
